Test results taken from US20020086396A1 (Human Genome Sciences, published 2002).

Biological target: T1, GST-αβ fusion protein (human, UniProt P52655 1-376)
T1 construct: Bacterially expressed and fixed to glutathione sepharose beads; not shown: glutathione-S-transferase (GST), fusion partner
T1 sequence (looked up): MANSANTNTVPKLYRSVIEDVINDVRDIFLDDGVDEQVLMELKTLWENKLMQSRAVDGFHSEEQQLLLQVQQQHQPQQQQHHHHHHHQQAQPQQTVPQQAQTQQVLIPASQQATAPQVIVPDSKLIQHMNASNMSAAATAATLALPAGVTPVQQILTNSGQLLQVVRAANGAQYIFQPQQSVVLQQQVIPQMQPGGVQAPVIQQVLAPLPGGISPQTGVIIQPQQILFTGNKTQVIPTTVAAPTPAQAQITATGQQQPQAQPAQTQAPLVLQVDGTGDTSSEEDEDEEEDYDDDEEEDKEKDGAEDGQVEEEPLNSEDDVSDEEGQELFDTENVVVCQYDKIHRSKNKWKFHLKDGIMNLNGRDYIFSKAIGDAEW
Experiment: GST pull-down, 35S-labelled protein on glutathione sepharose beads, autoradiography
Description: Bacterial extracts of GST or GST fusion proteins were incubated with glutathione sepharose-4B beads (6-9 μg of GST-fusion protein/20 μl of beads) with shaking at […]. After 2 hours the beads were washed with 50 column volumes of cold buffer A (20 mM NaH₂PO₄ (pH 7.0) 150 mM NaCl, 1 mM DTT, 1 mM PMSF). Washed beads (20 μl) were then incubated with reticulocyte lysates containing 2×10⁴ cpm of ³⁵S labelled protein in 300 μl of protein binding buffer (PBB) for 1 hour at room temperature. PBB contained 20 mM Hepes (pH 7.9), 20% glycerol, 0.5 mM EDTA, 60 mM KCl, 5 mM MgCl2, 0.1% NP40, and 5 mM β-mercaptoethanol. The beads were subsequently washed 4 times in PBB and labeled proteins were eluted with 1M KCl. Samples were analyzed on 15% SDS polyacrylamide gels, enhanced with NaSalycilate, and visualized by autoradiography.

binding result: no binding
B1: 35S-labelled TFIIA αβ (large subunit of human TFIIA) (other, UniProt P52655 1-376, looked up)
chain: T1 sequence (looked up)
modifications: 35S label
notes: Made in reticulocyte lysate as 35S-labelled protein; also called αβ subunit; radiolabelled αβ
